According to PMC9352680, “A comprehensive thermodynamic model for RNA binding by the Saccharomyces cerevisiae Pumilio protein PUF4”:
Residue numbers refer to the chain shown, from its start. Names may count otherwise.

T1: PUF4 RNA-binding domain (Saccharomyces cerevisiae, UniProt P25339 537-888)
T1 sequence: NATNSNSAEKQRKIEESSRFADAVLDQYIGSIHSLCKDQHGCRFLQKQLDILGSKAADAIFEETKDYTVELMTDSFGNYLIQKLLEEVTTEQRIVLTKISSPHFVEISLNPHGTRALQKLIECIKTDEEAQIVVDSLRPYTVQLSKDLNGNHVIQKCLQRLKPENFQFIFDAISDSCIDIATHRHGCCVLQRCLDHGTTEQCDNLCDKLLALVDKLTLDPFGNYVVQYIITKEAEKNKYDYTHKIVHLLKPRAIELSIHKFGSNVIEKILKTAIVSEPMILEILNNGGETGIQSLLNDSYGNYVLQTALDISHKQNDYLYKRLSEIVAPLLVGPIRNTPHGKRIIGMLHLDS

B1: Id_ii_S4_P3E.2_K3.1_C3.2_[C-2A]_[T-1G]_H3.1_A3.1_F3.1_T3.2_[T9A] (ssRNA)
RNA: UUUGACAACUGAUCGUUCUUUCUAGUGUAUAUAAAUUCUUUCUCGAUCAGUUGUCUUU
B2: Id_ii_S4_P3E.2_K3.1_C3.2_[T-1C]_H3.1_A3.1_F3.1_T3.2_[T9G]_[A10C] (ssRNA)
RNA: B1 RNA with A24C, G25C, A34G, A35C
B3: Id_ii_S4_P3E.2_K3.1_C3.2_[T-1C]_H3.1_A3.1_F3.1_T3.2_[T9C]_[A10T] (ssRNA)
RNA: B1 RNA with A24C, G25C, A34C, A35U
B4: Id_ii_S4_P3E.2_K3.1_C3.2_[C-2A]_[T-1G]_H3.1_A3.1_F3.1_T3.2_[T9A]_[A10G] (ssRNA)
RNA: B1 RNA with A35G
B5: Id_ii_S4_P3E.2_K3.1_C3.2_[T-1C]_H3.1_A3.1_F3.1_T3.2_[T9G]_[A10T] (ssRNA)
RNA: B1 RNA with A24C, G25C, A34G, A35U
B6: Id_ii_S4_P3E.2_K3.1_C3.2_[T-1G]_H3.1_A3.1_F3.1_T3.2_[T9A]_[A10G] (ssRNA)
RNA: B1 RNA with A24C, A35G
B7: Id_ii_S4_P3E.2_K3.1_C3.2_[T-1C]_H3.1_A3.1_F3.1_T3.2_[T9C]_[A10C] (ssRNA)
RNA: B1 RNA with A24C, G25C, A34C, A35C
B8: Id_ii_S4_P3E.2_K3.1_C3.2_H3.1_A3.1_F3.1_T3.2_[A10T] (ssRNA)
RNA: B1 RNA with A24C, G25U, A34U, A35U
B9: Id_ii_S4_P3E.2_K3.1_C3.2_[C-2A]_H3.1_A3.1_F3.1_T3.2_[T9A]_[A10G] (ssRNA)
RNA: B1 RNA with G25U, A35G
B10: Id_ii_S4_P3E.2_K3.1_C3.2_[T-1G]_H3.1_A3.1_F3.1_T3.2_[T9C]_[A10C] (ssRNA)
RNA: B1 RNA with A24C, A34C, A35C
B11: Id_ii_S4_P3E.3_K3.2_C3.2_[C-2T]_[T-1G]_H3.2_A3.1_F3.1_T3.2_[T9A]_[A10T] (ssRNA)
RNA: B1 RNA with A24U, G27A, A35U
B12: Id_ii_S4_P3E.2_K3.1_C3.2_[C-2A]_[T-1C]_H3.1_A3.1_F3.1_T3.2_[A10T] (ssRNA)
RNA: B1 RNA with G25C, A34U, A35U
B13: Id_ii_S4_P3E.3_K3.2_C3.2_[C-2G]_H3.2_A3.1_F3.1_T3.2_[T9C]_[A10T] (ssRNA)
RNA: B1 RNA with A24G, G25U, G27A, A34C, A35U
B14: Id_ii_S4_P3E.2_K3.1_C3.2_[T-1C]_H3.1_A3.1_F3.1_T3.2_[T9A]_[A10T] (ssRNA)
RNA: B1 RNA with A24C, G25C, A35U
B15: Id_ii_S4_P3E.2_K3.1_C3.2_H3.1_A3.1_F3.1_T3.2_[T9G]_[A10T] (ssRNA)
RNA: B1 RNA with A24C, G25U, A34G, A35U
B16: Id_ii_S4_P3E.3_K3.2_C3.2_[C-2G]_[T-1G]_H3.2_A3.1_F3.1_T3.2_[T9A]_[A10C] (ssRNA)
RNA: B1 RNA with A24G, G27A, A35C
B17: Id_ii_S4_P3E.2_K3.1_C3.2_[C-2A]_[T-1A]_H3.1_A3.1_F3.1_T3.2_[A10G] (ssRNA)
RNA: B1 RNA with G25A, A34U, A35G
B18: Id_ii_S4_P3E.2_K3.1_C3.2_[C-2A]_[T-1C]_H3.1_A3.1_F3.1_T3.2_[A10G] (ssRNA)
RNA: B1 RNA with G25C, A34U, A35G
B19: Id_ii_S4_P3E.2_K3.1_C3.2_[C-2A]_[T-1A]_H3.1_A3.1_F3.1_T3.2_[T9A]_[A10C] (ssRNA)
RNA: B1 RNA with G25A, A35C
B20: Id_ii_S4_P3E.3_K3.2_C3.2_[C-2T]_[T-1C]_H3.2_A3.1_F3.1_T3.2_[T9A] (ssRNA)
RNA: B1 RNA with A24U, G25C, G27A
B21: Id_ii_S4_P3E.3_K3.2_C3.2_[C-2G]_H3.2_A3.1_F3.1_T3.2 (ssRNA)
RNA: B1 RNA with A24G, G25U, G27A, A34U
B22: If_S4_P3E.2_K3.1_C3.2_H3.1_A3.1_F3.1_T3.2 (ssRNA)
RNA: B1 RNA with A24C, G25U, A34U
B23: Id_ii_S4_P3E.3_K3.2_C3.2_[C-2G]_[T-1G]_H3.2_A3.1_F3.1_T3.2_[A10T] (ssRNA)
RNA: B1 RNA with A24G, G27A, A34U, A35U
B24: Id_ii_S4_P3E.3_K3.2_C3.2_[C-2G]_[T-1G]_H3.2_A3.1_F3.1_T3.2_[A10G] (ssRNA)
RNA: B1 RNA with A24G, G27A, A34U, A35G
B25: Id_ii_S4_P3E.3_K3.2_C3.2_[C-2G]_H3.2_A3.1_F3.1_T3.2_[A10T] (ssRNA)
RNA: B1 RNA with A24G, G25U, G27A, A34U, A35U
B26: Id_ii_S4_P3E.2_K3.1_C3.2_[T-1C]_H3.1_A3.1_F3.1_T3.2_[A10T] (ssRNA)
RNA: B1 RNA with A24C, G25C, A34U, A35U
B27: Id_ii_S4_P3E.2_K3.1_C3.2_[T-1A]_H3.1_A3.1_F3.1_T3.2_[T9A] (ssRNA)
RNA: B1 RNA with A24C, G25A
B28: Ib_S1_P5E.1_K5.1_C5.1_H5.1_[T1C]_A5.1_[T5A]_F5.1_T5.1 (ssRNA)
RNA: UCUCUUCGUAAUAUUAUCUCUU
B29: Ib_S1_P5E.1_K5.1_C5.1_H5.1_[T1C]_A5.1_[T6C]_F5.1_T5.1 (ssRNA)
RNA: UCUCUUCGUAUCAUUAUCUCUU

Each binder was assayed against T1, PUF4 RNA-binding domain (assay: Mg; RNA-MaP; 20 mM Na-HEPES pH 7.4, 30 mM KOAc, 0.75 mM MgCl2, 0.1% Tween-20, 5% glycerol, 0.1 mg/mL BSA, 2 mM DTT; 25 C; 0.0125-409.6 nM protein). Conditions: tags: N-His6-TEV cleaved; C-SNAP kept, Cy3B-labelled; label: tethered on chip by stalled RNA polymerase.
B1 gave a Kd of 10.8 nM.
For B2, the Kd was 2 nM.
B3 was tested, and the Kd was 1.47 nM.
In the case of B4, the Kd is reported as 9.13 nM.
For B5, the Kd was 1.77 nM.
Work on B6 yielded a Kd of 6.69 nM.
B7 showed a Kd of 2.05 nM.
Work on B8 yielded a Kd of 1.14 nM.
With B9 the Kd was 10.2 nM.
Work on B10 yielded a Kd of 11.3 nM.
In the case of B11, the Kd is reported as 1.81 nM.
For B12, the Kd was 2.68 nM.
With B13 the Kd was 146 nM.
B14 showed a Kd of 1.23 nM.
B15 was tested, and the Kd was 3.88 nM.
Binder B16 has a Kd of 2160 nM.
B17 was tested, and the Kd was 7.52 nM.
Work on B18 yielded a Kd of 39.2 nM.
B19 gave a Kd of 9.36 nM.
Work on B20 yielded a Kd of 472 nM.
B21 showed a Kd of 43.8 nM.
B22 showed a Kd of 0.951 nM.
B23 showed a Kd of 234 nM.
In the case of B24, the Kd is reported as 562 nM.
B25 showed a Kd of 16.8 nM.
With B26 the Kd was 1.16 nM.
For B27, the Kd was 5.28 nM.
For B28, the Kd was 2020 nM.
For B29, the Kd was 1380 nM.
